Experimental data: US20210301293, “DNA APTAMERS, METHOD FOR INHIBITING HUMAN GALECTIN-1 AND METHOD OF TREATING A MAMMAL IN NEED THEREOF” (published 2021)

B1: SEQ ID NO. 10 (ssDNA)
DNA: AGCTGACACAGCAGGTTGGTGCCAACAAGAAAAGAAACCGTTACAGAAGACACTACAGAATAAGTGAAAAGCCGAGTCGAGCAATCTCGAAAT
B2: SEQ ID NO. 12 (ssDNA)
DNA: AGCTGACACAGCAGGTTGGTGCGCCCAATACAGGCGCAGTATCTGTCCGTGGGCCGGGTAAAAGTTACGGACCGAGTCGAGCAATCTCGAAAT
B3: SEQ ID NO. 9 (ssDNA)
DNA: AGCTGACACAGCAGGTTGGTGCCCAAAAGAGCCAATCCACGACGACACCCCAAAAACCATATCACGAATACCCGAGTCGAGCAATCTCGAAAT

What was measured:
[1] = target: T1, human galectin-1 (hGal1), native (Homo sapiens, UniProt P09382 SEQ:1-134); test: thermal shift assay; results stated similar to SEQ ID NO 4 and 9; conditions: tags: expressed in E. coli M-15, lactosyl-Sepharose purified; chain copies: 2
Protocol: (§1) Thermofluor experiments were performed on an Mx3005 RT-PCR (Agilent Technologies) using the SYPRO® Orange dye (492/610 nm) (Invitrogen) as fluorescent probe. The purified (native and alkylated) protein samples were incubated for 30 min with increasing concentration of the molecules of interest, centrifuged, and submitted to the thermal denaturation assay, totalizing four distinct experiments. In a 96-well plate (Agilent Technologies) 20 μl of the reaction containing 5 μM of each protein in buffer PBS 1× and 5× SYPRO® Orange were heated from 25° C. to 95° C. at a rate of 1° C./min. The experimental result was processed as in the protocol previously described and the melting temperature was obtained using GraphPad Prism software (www.graphpad.com).

[2] = target: T1, human galectin-1 (hGal1), native; test: thermal shift assay; among the four with greatest Tm variation; conditions: tags: expressed in E. coli M-15, lactosyl-Sepharose purified; chain copies: 2
Protocol: as §1

T1 sequence (P09382 2-135): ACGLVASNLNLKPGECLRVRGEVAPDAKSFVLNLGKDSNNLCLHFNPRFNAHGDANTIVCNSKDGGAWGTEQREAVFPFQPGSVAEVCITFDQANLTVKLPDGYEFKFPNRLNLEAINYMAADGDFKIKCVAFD

| Binder | binding result [1] | binding result [2] |
| --- | --- | --- |
| B1 | binds | – |
| B2 | binds | – |
| B3 | – | binds |
